Laboratory results taken from the DeepSol protein solubility set.

test: soluble on expression in E. coli; label from the status in PepcDB or PDB records

**Q.** Which “soluble on expression in E. coli” value does the source give for “MSLTLYKPNETDFTHNGIGALDKNIYNATVEEELNGLFLFSFSYPLFAPHGLEIEGMSIIKVPTPDGEQLFRVAAPKASMGEVTAQCYHIFYDLTENLIEDIFAETTNGNGAMNRMSAGCQYKHPFQFYSDVPKIASARIVRKNPVEALLDSSQDNSFVNRWGGELKRDNFDVKMLQNRGMDRGVVIRHKKDLLGYEGNVDWKSPITRIMPQGFDGLFLPEKYVDSPLINKYPHPKIKVVEFKHIKAAIGENADDEDAVPLEEAYRLLRQAAKGMFTIQKADQPKATYNVKFQELSQTEEYKDYKHLQSVYMADTVTVEHQEDGIDIKAKVIAYKYDPIKKEYLDVTIGNFKESFTDVSGRVDLVQEELSNMPSSILDAAKVNATSLINSGFGGHVRVYPNRILIMDTKDEKSAKKVWQWNLNGLGYSSTGVNGPYGTAITSDGRIVADFITAGTLSGNFVRGGEITGSTEGHHHHHH” here?
**A.** The value was “soluble”.

**Q.** Which “soluble on expression in E. coli” value does the source give for “MSLTNDVDAIQPIGLRRIDHIAQTMKFDEMQDWLLYYISTFEMDKSSIVNVNDPSGIILSQAIESPEGEVRLNLNASEDLNTFAGLFVEDKFGAGVQHIAFASDDIFESANLLRINGFKSLAIPSGYYEETKNKFNLNDTFIAQLKKQNILYDQDGNSEYFQIYSKNLFDGFFFEIVQRKNGYSGYGARNASVRLSSQTILQQAEGHHHHHH” here?
**A.** Its value is “not soluble”.

**Q.** With “MSLTNEKSTEEIALGIRRRVFFHTMKNNGGYLSQACSAAESLALLYNELLTLGEPTLPKVPLPFRGVPSAHNPDAFTGAGYHGPVGPNFDRFFISPAHYALVIYSVLIEMGRMDEHALDHFNKDGGSVEMIGAEHSPGMEVTTGSLAQGLSMASGVAWARLRKKEPGKVWVYMSDGEFQEGQTWECLAAMSYHKIDNIRVIVDVNRQQCDGAMSSVLDLGDLASRVASFGVTCRSVDGHDLGALRAAAESAEAGKPLVILANTSPYQGMDFLKKRFPRLHYVRFKSAEERQEMQTALAIELGIDLTAMERAEGHHHHHH” as the sequence, how does the “soluble on expression in E. coli” value read?
**A.** The value was “not soluble”.

**Q.** Which “soluble on expression in E. coli” value does the source give for “MSLTNLLQKIGDAVTVVNFSLYEGFIFDMDGTLLDTMPAHLAAWEATAKHFDFPFDAQWLYGLGGMPSAKITTHINKKLGLALDPDRVAAYKMDWFASMGLQAEVIPATYELLCQWQGKKKMAIGTGSQRDSALRLLSNAQVLDKFDAVVTASDVQQHKPHPETFLMACEQLGLTPKQCLVFEDTQLGLQAAHAGGMDCMLVTEQGLVFYPFAHEGHHHHHH” here?
**A.** The value was “soluble”.

**Q.** For “MSLTNPAPIEAPLPKGVTDFLPEKADKIGYIEGKIRRVFELWGFRRIITPLLEFQDVMAAGLGEDLKERTFRFDDRQTGKLLAIPSDITPQVARIVATRMRGCPLPHRLYYIGRVLRHVELQSGRSRETFQAGVELIGLDSPEADAEMVAMAVEILKGLGFEEFKVDLGHTGFIRGVMAASGLGGDARRRLQEAVGKKDSSAVRAILETEPVADRIKEELAALPRLFGGREVLAEAARVATSDSSRRALDNIAQVLDILDIHGVSDHLTLDLGEIRGLDYHSGLTFEGFVTGIGEAVCSGGRYDNLTQRYGYPAPATGFAFNILALLNALEKRPDVEASKTRDLLIFNLKDDRREALEIAQHLRALGYSTARDIIHRDFNDSLDYARRMNILRMMVIGGDYCAADEAYVVRVADKRGTAVKKADLMRNDFSLNTEGHHHHHH”, which “soluble on expression in E. coli” value is on record?
**A.** Its value is “soluble”.

**Q.** With “MSLTPLTGQDTPALDECVVDAVDVHAFEVPTDGPEGREQDGTLEWDATTLVLVRVHAGGRTGLGYTYGDVSVASFAHSVLGPVVKGRPVSSPPALWELMGARMRNAGRPGVGAMALSAVDVALWDLKARLLGLPLVHLLPAHHDRVPVYGSGGFTNYPLDRLTDQLAGWVRQGIGRVKLKTSRDPEADPRRLTAVRRAVGDGPEVFTDANGALGRKAALYWAHRFHDEWDVRWFEEPVASADLEGLRMLRERGPARLEITAGEYAFTAQDFANLTEGPAVDCLQADVTRCGGVTGVLEVAGLSAARHLDLSAHCAPAVSAHAFCAVRRLRHLEYFHDHVRVERLLFDGVPSPEGGALRPDTSRPGLGLEVRWADAEPYRVRGVRPPREGHHHHHH” as the sequence, how does the “soluble on expression in E. coli” value read?
**A.** The value was “soluble”.

**Q.** For “MSLTQAATRPTNDAGQDGGNNSDILVVARQQVLQRGEGLNQDQVLAVLQLPDDRLEELLALAHEVRMRWCGPEVEVEGIISLKTGGCPEDCHFCSQSGLFASPVRSAWLDIPSLVEAAKQTAKSGATEFCIVAAVRGPDERLMAQVAAGIEAIRNEVEINIACSLGMLTAEQVDQLAARGVHRYNHNLETARSFFANVVTTHTWEERWQTLSMVRDAGMEVCCGGILGMGETLQQRAEFAAELAELGPDEVPLNFLNPRPGTPFADLEVMPVGDALKAVAAFRLALPRTMLRFAGGREITLGDLGAKRGILGGINAVIVGNYLTTLGRPAEADLELLDELQMPLKALNASLEGHHHHHH”, which “soluble on expression in E. coli” value is on record?
**A.** The value was “soluble”.

**Q.** Which “soluble on expression in E. coli” value does the source give for “MSLTQIQPGVEKFIKDFNDAKKKGEHAYDMTLSYQNFDKGFFNSRFQMQMTFDNGAPDLNIKPGQKVVFDVDVEHGPLPITMLMHGNVIPALAAAKVNLVNNELTQPLFIAAKNKSPVEATLRFAFGGSFSTTLDVAPAEYGKFSFGEGQFTFNGDGSSLSNLDIEGKVEDIVLQLSPMNKVTAKSFTIDSLARLEEKKFPVGESESKFNQINIINHGEDVAQIDAFVAKTRLDRVKDKDYINVNLTYELDKLTKGNQQLGSGEWSLIAESIDPSAVRQFIIQYNIAMQKQLAAHPELANDEVALQEVNAALFKEYLPLLQKSEPTIKQPVRWKNALGELNANLDISIADPAKSSSSTNKDIKSLNFDVKLPLNVVTETAKQLNLSEGMDAEKAQKQADKQISGMMTLGQMFQLITIDNNTASLQLRYTPGKVVFNGQEMSEEEFMSRAGRFVHEGHHHHHH” here?
**A.** Its value is “not soluble”.

**Q.** For “MSLTQPPQQAISAAHSELEQNHRVLLQLMDTLVSQIKDYSEDVEFNLQNDSTIKNTIVEILSFISRSNQKDQLSLKVSQAVVNSLFGSNESKLCRDVLSLLLEKLCSLSIVARKDVVWWLVYALDPRKFNVPVVRSLLEVNLINIAEFDAVLVTAMKNGMAGATEFSMNLIRDTVMADSPILMRLDFIRILGYLRTINTPEIKAFLEEYEQCRAVPVSKTTSITKVERYYLVFTEWVKLQQRVETDDVVNIVFIRQLFEKGVIDSKEKVIEFIKAALELSVNSFKQSDPTGEVFTSIDALSRLITSLLVVQELNVEERKEYLNLLLSVVTLVFAKDHQTNMTSFNERPYFRLYSSLLSDWDKLRDHHFIRVSDSVVRKSLIEFDQYFFDIFASFLHSYQPIAFPGFSFAWITLISHRMFLPKVLRSKELYGWDKLVLLLIDLMKFLSQYIKKDNVPDSISVIYKGALRIFLGISNDVPEFLIQNHYKLVKNVPPTCIQLRNIILSAIPKKMMIPDPFVSEITEDNCKDIPQVFYDPSQDLKSLKKPIINYLRIPSSSLLRTICGGMFRTELEYENGIGYDENNVDVNLIHAIVTHVAVEVGLEVEKASKNAVFNVKSSYYTLLFGLLSDGNDEVKFHIIQAMVNQLRYPNVHTHWFNFALKLMFQSDQWPDDQLSTIQEIILRSLLERIIVNKPHPWGVVVTFMDLLKLEGTKMIEKPFINDIPEIHAIMKNLQKYALTSSSEGHHHHHH”, which “soluble on expression in E. coli” value is on record?
**A.** The value was “soluble”.

**Q.** Which “soluble on expression in E. coli” value does the source give for “MSLTQVIPTSLLQRLSLLFGCAGIVLGTAVANASSPASRDLFEIHVRPTLIKHCIQCHGETEQEGGLKLTSLDAMLAGGDSGPAIVPGNADDSLILEALRFESFEMPPAGQLDDPVVNGFASWIKAGAPWPEDLILTPMPIITEDDRDWWCYQPIADPVVPDVDDDSWCRNEIDRFVLDRLKQENLRPADEATASQLTRRLHFALTGLPPTCPPPSNQQNADSSADDWYEAQLNELLSSPAYGEHQARYWMDLVRYADSDGYNADHARPHAHLYRDYVIRSFNEDKPYDRFVCEQLAGDEIDPGNRDALIGTMYLRHWIYEWNQRDVEGQWQEIISDITETTADVFLAQGLKCARCHDHKFDPLLQRDFFALKAFFTPLLPREDFPVADVATREGHHHHHH” here?
**A.** Its value is “not soluble”.

**Q.** For “MSLTRSTRNSIEFKVWGRHALFTDPLTKVGGEKCSYHVPTYEALKGIAKSIYWKPTLIWVIDEVRVMKRVRTQTKGTKPLEFGGGNSLAIYTFLADVEYQVRAHFEWNEHRPELQADRIDGKHYAIARRMLERGGRQDIFLGTRDCQGYIEPCEFGGGAGAHDEGSELAFGLMFHGFDYPDETGDQKLHARFWRPVMRNGFIRFDRPEDCPVRKFVRSMSVKPFGFGQNLQSADEAAAELEGLAEGHHHHHH”, which “soluble on expression in E. coli” value is on record?
**A.** The value was “soluble”.
